Laboratory results: patent CN110526967A (UNIV NORTHWEST A&F, dated 2019)

Experiments:
金黄色葡萄球菌肠毒素A = molecular target: T1, 金黄色葡萄球菌肠毒素A (Staphylococcus aureus, UniProt P0A0L2 25-257); test: phage ELISA on coated SEA
T1 sequence: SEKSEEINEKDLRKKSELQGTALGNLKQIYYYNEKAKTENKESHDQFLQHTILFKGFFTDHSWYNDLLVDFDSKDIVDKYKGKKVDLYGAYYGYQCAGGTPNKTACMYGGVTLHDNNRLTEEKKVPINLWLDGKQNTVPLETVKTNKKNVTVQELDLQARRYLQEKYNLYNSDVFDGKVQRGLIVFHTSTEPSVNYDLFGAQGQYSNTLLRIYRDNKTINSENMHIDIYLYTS

金黄色葡萄球菌肠毒素B = molecular target: T2, 金黄色葡萄球菌肠毒素B (Staphylococcus aureus, UniProt P01552 28-266); test: direct ELISA, antigen coated, HRP-conjugated nanobody
T2 sequence: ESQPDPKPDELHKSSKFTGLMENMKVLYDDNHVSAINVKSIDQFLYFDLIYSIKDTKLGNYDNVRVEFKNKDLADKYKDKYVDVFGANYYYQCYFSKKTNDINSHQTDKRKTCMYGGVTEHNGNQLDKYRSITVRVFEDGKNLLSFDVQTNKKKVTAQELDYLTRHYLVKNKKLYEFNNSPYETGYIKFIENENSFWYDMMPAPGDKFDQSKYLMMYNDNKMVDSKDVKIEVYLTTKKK

B1: 金黄色葡萄球菌肠毒素A纳米抗体A13 (VHH)
VHH: ESGGGSVQAGGSLRLSCAASGDAYMCKCMGWFRQGPGKEREKVAAIYITDGSTYYADSVKGRFTLSQDNAKNTVYLQMNSLKPEDTAMYYCAASTFYGCETGLHGYNYWGQGTQVTVS
binding result (金黄色葡萄球菌肠毒素A): binds
binding result (金黄色葡萄球菌肠毒素B): no binding (tested: 500ng/mL (coating))
